These results are taken from article doi:10.64898/2026.08.21.746223.

The term stoichiometry N denotes a count of units in the complex or per binding partner.

Where two headings read alike, the source gives them in different places.

For experiment [1], the target named is PelC (P. aeruginosa PAO1, PA3062), outer membrane lipoprotein (Pseudomonas aeruginosa PAO1). Description: cryo-EM structure.
Experiment [2] shares this target. Description: cryo-EM structure. This is another data set of the same source.

In the case of “PelC (P. aeruginosa PAO1, PA3062), outer membrane lipoprotein (natural protein)”, the stoichiometry N in experiment [1] and in experiment [2] was 12 throughout.
